The record followed here is publication PMC8333356 (Nature Communications, 2021).

First the molecules themselves.
B1: Nb21 (VHH)
VHH: QVQLVESGGGLVQAGGSLRLSCAVSGLGAHRVGWFRRAPGKEREFVAAIGANGGNTNYLDSVKGRFTISRDNAKNTIYLQMNSLKPQDTAVYYCAARDIETAEYTYWGQGTQVTVSS
notes: Cloned in pET-21b(+); also called class I Nb; source: E. coli BL21 (DE3), purified (cobalt resin, Superdex 75)
B2: Nb95 (VHH)
VHH: QVQLVESGGGLVQAGGSLRLSCAASGRTFSSYSMGWFRQAQGKEREFVATINGNGRDTYYTNSVKGRFTISRDDATNTVYLQMNSLKPEDTAIYYCAADKDVYYGYTSFPNEYEYWGQGTQVTVSS
notes: Cloned in pET-21b(+)
B3: Nb34 (VHH)
VHH: DVQLVESGGGLVQAGGSLRLSCAASGFTFSNYVMYWGRQAPGKGREWVSGIDSDGSDTAYASSVKGRFTISRDNAKNTLYLQMNNLKPEDTALYYCVKSKDPYGSPWTRSEFDDYWGQGTQVTVSS
notes: Cloned in pET-21b(+)
B4: Nb17 (VHH)
VHH: HVQLVESGGGLVQAGGSLRLSCAASGSIFSSNAMSWYRQAPGKQRELVASITSGGNADYADSVKGRFTISRDKNTVYPEMSSLKPADTAVYYCHAVGQEASAYAPRAYWGQGTQVTVSS
notes: Cloned in pET-21b(+); also called class III Nb; source: E. coli BL21 (DE3), purified (cobalt resin, Superdex 75)

This assay deals with receptor binding domain (RBD) of SARS-CoV-2 spike (SARS-CoV-2 Wuhan-Hu-1, UniProt P0DTC2). As to the kind of experiment: ELISA. The settings on record: both partners purified. For orientation: An ELISA detects its analyte on a solid surface through an enzyme-linked reagent.
For B1, the binding result is “binds”.

B2: the binding result was “binds”.

B3: the binding result is reported as “binds”.

As for B4, the binding result is given as “binds”.
